In PMC6053527 (Frontiers in Plant Science, 2018):
Each block holds one molecule with its values, some of them ahead of it.

Experiments:
SyMDH [1] = molecular target: T1, SyMDH (Synechocystis sp. PCC 6803, UniProt Q55383); experiment: spectrophotometric assay at […] nm with effector; assay type: biochemical; settings: read-out: % activity at 1 mM
T1 construct: gene mdh; full ORF in pGEX5X-1, N-terminal GST tag kept, E. coli expression, glutathione-Sepharose purification
T1 sequence (Q55383 1-324): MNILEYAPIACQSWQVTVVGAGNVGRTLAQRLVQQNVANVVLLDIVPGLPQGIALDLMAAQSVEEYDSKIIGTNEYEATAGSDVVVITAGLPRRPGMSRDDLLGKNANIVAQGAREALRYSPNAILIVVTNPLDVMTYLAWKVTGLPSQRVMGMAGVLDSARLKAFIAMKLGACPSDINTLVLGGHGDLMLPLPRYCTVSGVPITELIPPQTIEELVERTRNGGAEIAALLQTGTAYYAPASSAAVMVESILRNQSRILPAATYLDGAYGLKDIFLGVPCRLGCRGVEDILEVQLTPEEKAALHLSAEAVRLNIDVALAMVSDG

SyMDH [2] = molecular target: T1, SyMDH; experiment: spectrophotometric assay at […] nm; fit to modified Michaelis-Menten equation; assay type: biochemical; settings: substrate inhibition by NAD+; oxidative reaction, 4.0 mM malate, 100 mM potassium phosphate pH 8.0
purified protein [3] = substrate: O=C(O)C[C@H](O)C(=O)O; experiment: purified protein; settings: oxidative reaction, 8.0 mM NAD+, 100 mM potassium phosphate pH 8.0
purified protein [4] = substrate: O=C(O)CC(=O)C(=O)O; experiment: purified protein; assay type: biochemical, Synechocystis sp. PCC 6803; settings: reductive reaction, 0.1 mM NADH, 100 mM potassium phosphate pH 6.5; no added effector; pH 6.5
purified protein [5] = substrate: NC(=O)c1ccc[n+]([C@@H]2O[C@H](COP(=O)(O)OP(=O)(O)OC[C@H]3O[C@@H](n4cnc5c(N)ncnc54)[C@H](O)[C@@H]3O)[C@@H](O)[C@H]2O)c1; experiment: purified protein; assay type: biochemical, Synechocystis sp. PCC 6803; settings: oxidative reaction, 4.0 mM malate, 100 mM potassium phosphate pH 8.0; pH 8.0
purified protein [6] = substrate: NC(=O)C1=CN([C@@H]2O[C@H](COP(=O)(O)OP(=O)(O)OC[C@H]3O[C@@H](n4cnc5c(N)ncnc54)[C@H](O)[C@@H]3O)[C@@H](O)[C@H]2O)C=CC1; experiment: purified protein; assay type: biochemical, Synechocystis sp. PCC 6803; settings: reductive reaction, 0.1 mM oxaloacetate, 100 mM potassium phosphate pH 6.5; pH 6.5

activity at 1000 µM (SyMDH [1]): ~170%
Molecule: O=C(O)/C=C/C(=O)O [fumarate]

Ki (SyMDH [2]): 14.5 mM
Molecule: NC(=O)c1ccc[n+]([C@@H]2O[C@H](COP(=O)(O)OP(=O)(O)OC[C@H]3O[C@@H](n4cnc5c(N)ncnc54)[C@H](O)[C@@H]3O)[C@@H](O)[C@H]2O)c1 [NAD^+]

B1: SyMDH (Synechocystis sp. PCC 6803 substr. Kazusa) (protein)
chain: T1 sequence (Q55383 1-324)
notes: full ORF in pGEX5X-1, N-terminal GST tag kept, E. coli expression, glutathione-Sepharose purification
Km (purified protein [3]): 2600 µM
kcat (purified protein [3]): 0.43 s⁻¹
Km (purified protein [4]): 12 µM
kcat (purified protein [4]): 0.71 s⁻¹
Km (purified protein [5]): 580 µM
kcat (purified protein [5]): 0.21 s⁻¹
Km (purified protein [6]): 30 µM
kcat (purified protein [6]): 0.97 s⁻¹
